The results in this text go back to patent EP2345737A1 (Harant, Hanna, dated 2011).

First the molecules themselves.
T1: VEGF-A truncated nascent chain (52 amino-terminal residues of VEGF-A plus His6 and two valines) translated in … (human, ε-labelled biotinylated lysine incorporated from Transcend tRNA (positions not stated))
T1 construct: in one setting the ribosomes were dissociated with RNAse ONE before elution; also called VEGF-A nascent chains; VEGF-A-translating ribosomes
T1 chain: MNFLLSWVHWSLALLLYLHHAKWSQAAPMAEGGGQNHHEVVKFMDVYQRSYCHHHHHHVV

T2: VEGF-A truncated nascent chain (amino-terminal 52 amino acid residues of human VEGF-A plus six histidine … (human))
T2 construct: Translated in vitro in wheat germ lysate without stop codon; also called short VEGF-A nascent chains; bait polypeptide
T2 chain: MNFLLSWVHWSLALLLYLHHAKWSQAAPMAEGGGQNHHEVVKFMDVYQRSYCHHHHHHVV

B1: EIRTPSV (SEQ ID NO: 21), displayed on M13 phage (peptide)
chain: CEIRTPSVC
modifications: disulfide 1-9; not fully specified
notes: From the Ph.D.-C7C library; on phage; not shown: M13 pIII minor coat protein, peptide at its amino-terminus
B2: AFPGMKA (SEQ ID NO: 18), displayed on M13 phage (peptide)
chain: CAFPGMKAC
modifications: disulfide 1-9; not fully specified
notes: as for B1
B3: LALSAAR (SEQ ID NO: 25), displayed on M13 phage (peptide)
chain: CLALSAARC
modifications: disulfide 1-9; not fully specified
notes: as for B1
B4: PLHPPQP (SEQ ID NO: 41), displayed on M13 phage (peptide)
chain: CPLHPPQPC
modifications: disulfide 1-9
notes: as for B1
B5: PSLFPSM (SEQ ID NO: 44), displayed on M13 phage (peptide)
chain: CPSLFPSMC
modifications: disulfide 1-9
notes: as for B1
B6: LPRPLHS (SEQ ID NO: 42), displayed on M13 phage (peptide)
chain: CLPRPLHSC
modifications: disulfide 1-9; not fully specified
notes: as for B1
B7: EASSSRA (SEQ ID NO: 45), displayed on M13 phage (peptide)
chain: CEASSSRAC
modifications: disulfide 1-9; not fully specified
notes: as for B1
B8: SPHLIPS (SEQ ID NO: 27), displayed on M13 phage (peptide)
chain: CSPHLIPSC
modifications: disulfide 1-9
notes: as for B1
B9: PPPFLPL (SEQ ID NO: 20), displayed on M13 phage (peptide)
chain: CPPPFLPLC
modifications: disulfide 1-9
notes: as for B1
B10: SPSTSSR (SEQ ID NO: 34), displayed on M13 phage (peptide)
chain: CSPSTSSRC
modifications: disulfide 1-9
notes: as for B1
B11: HAWTFNS (SEQ ID NO: 22), displayed on M13 phage (peptide)
chain: CHAWTFNSC
modifications: disulfide 1-9; not fully specified
notes: as for B1
B12: NASRTTL (SEQ ID NO: 48), displayed on M13 phage (peptide)
chain: CNASRTTLC
modifications: disulfide 1-9; not fully specified
notes: as for B1
B13: PSALAFY (SEQ ID NO: 47), displayed on M13 phage (peptide)
chain: CPSALAFYC
modifications: disulfide 1-9
notes: as for B1
B14: LTLPNRT (SEQ ID NO: 17), displayed on M13 phage (peptide)
chain: CLTLPNRTC
modifications: disulfide 1-9; not fully specified
notes: as for B1
B15: HPMFPLS (SEQ ID NO: 28), displayed on M13 phage (peptide)
chain: CHPMFPLSC
modifications: disulfide 1-9; not fully specified
notes: as for B1
B16: LPVSSSS (SEQ ID NO: 24), displayed on M13 phage (peptide)
chain: CLPVSSSSC
modifications: disulfide 1-9; not fully specified
notes: as for B1
B17: FPATAAS (SEQ ID NO: 36), displayed on M13 phage (peptide)
chain: CFPATAASC
modifications: disulfide 1-9; not fully specified
notes: as for B1
B18: DYPWPLP (SEQ ID NO: 40), displayed on M13 phage (peptide)
chain: CDYPWPLPC
modifications: disulfide 1-9; not fully specified
notes: as for B1
B19: SLNSDLF (SEQ ID NO: 26), displayed on M13 phage (peptide)
chain: CSLNSDLFC
modifications: disulfide 1-9
notes: as for B1
B20: SRSALES (SEQ ID NO: 46), displayed on M13 phage (peptide)
chain: CSRSALESC
modifications: disulfide 1-9
notes: as for B1
B21: HPMFWPI (SEQ ID NO: 29), displayed on M13 phage (peptide)
chain: CHPMFWPIC
modifications: disulfide 1-9; not fully specified
notes: as for B1
B22: HALSSRT (SEQ ID NO: 32), displayed on M13 phage (peptide)
chain: CHALSSRTC
modifications: disulfide 1-9; not fully specified
notes: as for B1
B23: EPASSRH (SEQ ID NO: 37), displayed on M13 phage (peptide)
chain: CEPASSRHC
modifications: disulfide 1-9; not fully specified
notes: as for B1
B24: VSGSSPQ (SEQ ID NO: 43), displayed on M13 phage (peptide)
chain: CVSGSSPQC
modifications: disulfide 1-9; also: displayed on M13 phage, fused to pIII
notes: as for B1
B25: HALPAPD (SEQ ID NO: 49), displayed on M13 phage (peptide)
chain: CHALPAPDC
modifications: disulfide 1-9; not fully specified
notes: as for B1
B26: SYPLRPP (SEQ ID NO: 23), displayed on M13 phage (peptide)
chain: CSYPLRPPC
modifications: disulfide 1-9; also: displayed on M13 phage, fused to pIII
notes: as for B1
B27: PHTRGFM (SEQ ID NO: 33), displayed on M13 phage (peptide)
chain: CPHTRGFMC
modifications: disulfide 1-9
notes: as for B1
B28: TLSHTRT (SEQ ID NO: 35), displayed on M13 phage (peptide)
chain: CTLSHTRTC
modifications: disulfide 1-9; also: displayed on M13 phage, fused to pIII
notes: as for B1
B29: WASQAHP (SEQ ID NO: 30), displayed on M13 phage (peptide)
chain: CWASQAHPC
modifications: disulfide 1-9; also: displayed on M13 phage, fused to pIII
notes: as for B1
B30: LPPLQRL (SEQ ID NO: 19), displayed on M13 phage (peptide)
chain: CLPPLQRLC
modifications: disulfide 1-9; not fully specified
notes: as for B1
B31: SSTLHPS (SEQ ID NO: 31), displayed on M13 phage (peptide)
chain: CSSTLHPSC
modifications: disulfide 1-9; also: displayed on M13 phage, fused to pIII
notes: as for B1
B32: PANFGPS (SEQ ID NO: 16), displayed on M13 phage (peptide)
chain: CPANFGPSC
modifications: disulfide 1-9
notes: as for B1
B33: SGSSPWH (SEQ ID NO:7), displayed on M13 phage (peptide)
chain: CSGSSPWHC
modifications: disulfide 1-9
notes: as for B1
B34: PVAPSTH (SEQ ID NO:13), displayed on M13 phage (peptide)
chain: CPVAPSTHC
modifications: disulfide 1-9
notes: as for B1
B35: HPSSTHQ (SEQ ID NO:8), displayed on M13 phage (peptide)
chain: CHPSSTHQC
modifications: disulfide 1-9; not fully specified
notes: as for B1
B36: FLFRLF (SEQ ID NO:2), displayed on M13 phage (peptide)
chain: CFLFRLFC
modifications: disulfide 1-8; not fully specified
notes: From the Ph.D.-C7C library; on phage; A hexapeptide; not shown: M13 pIII minor coat protein, peptide at its amino-terminus
B37: SSPLLGR (SEQ ID NO:12), displayed on M13 phage (peptide)
chain: CSSPLLGRC
modifications: disulfide 1-9
notes: as for B1
B38: LTRPSPS (SEQ ID NO:10), displayed on M13 phage (peptide)
chain: CLTRPSPSC
modifications: disulfide 1-9; not fully specified
notes: as for B1
B39: SPRPSLS (SEQ ID NO:15), displayed on M13 phage (peptide)
chain: CSPRPSLSC
modifications: disulfide 1-9
notes: as for B1
B40: NLSSSWI (SEQ ID NO:9), displayed on M13 phage (peptide)
chain: CNLSSSWIC
modifications: disulfide 1-9
notes: as for B1
B41: PMTSPPS (SEQ ID NO:3), displayed on M13 phage (peptide)
chain: CPMTSPPSC
modifications: disulfide 1-9
notes: as for B1
B42: SVSGSPS (SEQ ID NO:6), displayed on M13 phage (peptide)
chain: CSVSGSPSC
modifications: disulfide 1-9; also: displayed on M13 phage, fused to pIII
notes: as for B1
B43: TASSVKL (SEQ ID NO:5), displayed on M13 phage (peptide)
chain: CTASSVKLC
modifications: disulfide 1-9; also: displayed on M13 phage, fused to pIII
notes: as for B1
B44: NPISLHL (SEQ ID NO:4), displayed on M13 phage (peptide)
chain: CNPISLHLC
modifications: disulfide 1-9
notes: as for B1
B45: LGALSHT (SEQ ID NO:14), displayed on M13 phage (peptide)
chain: CLGALSHTC
modifications: disulfide 1-9; not fully specified
notes: as for B1
B46: SPSLLPA (SEQ ID NO:11), displayed on M13 phage (peptide)
chain: CSPSLLPAC
modifications: disulfide 1-9
notes: as for B1
B47: PLHARLP (SEQ ID NO:1), displayed on M13 phage (peptide)
chain: CPLHARLPC
modifications: disulfide 1-9
notes: as for B1

Bridges are numbered along the chain shown (N, C = ends). Where no end group is shown, it is not given here.

In the first test the target is T1, VEGF-A truncated nascent chain (52 …). Put plainly: phage panning, biotinylated ribosome-bound nascent chain in streptavidin wells; selection only.
Take B1: the binding result is recorded as “binds”.
Still for that read-out and setting: the same measure for B2: “binds”.
Same read-out and setting: the same measure for B3: “binds”; for B4: “binds”; for B5: “binds”.
For B6, the binding result is reported as “binds”.
Consider B7, for which the binding result is listed as “binds”.
B8: the binding result is on record as “binds”.
As to B9, the binding result is reported as “binds”.
In the case of B10, the binding result is “binds”.
As for B11, the binding result is given as “binds”.
The same measure, in the same setting: with B12 the entry was “binds”; with B13, “binds”; with B14, “binds”.
In the case of B15, the binding result is listed as “binds”.
Take B16: the binding result is reported as “binds”.
Same read-out and setting: with B17 the entry was “binds”.
For the molecule B18, the binding result is on record as “binds”.
In the case of B19, the binding result is recorded as “binds”.
Turning to B20, the binding result is on record as “binds”.
With B21, the binding result is recorded as “binds”.
For the molecule B22, the binding result is listed as “binds”.
Take B23: the binding result is given as “binds”.
As for B24, the binding result is listed as “binds”.
Turning to B25, the binding result is “binds”.
As for B26, the binding result was “binds”.
Regarding B27, the binding result is recorded as “binds”.
On to B28, for which the binding result is “binds”.
Regarding B29, the binding result is “binds”.
For the molecule B30, the binding result was “binds”.
Same read-out and setting: the same measure for B31: “binds”; for B32: “binds”.

In a further test the target is T2, VEGF-A truncated nascent chain …. Put plainly: phage panning, released His-tagged nascent chain on Ni-NTA beads, DTT elution; selection only.
For the molecule B33, the binding result is given as “binds”.
Consider B34, for which the binding result is given as “binds”.
As for B35, the binding result is on record as “binds”.
Regarding B36, the binding result is “binds”.
For B37, the binding result is listed as “binds”.
As to B38, the binding result is listed as “binds”.
Take B39: the binding result is on record as “binds”.
For B40, the binding result is “binds”.
On to B41, for which the binding result is on record as “binds”.
As for B42, the binding result is listed as “binds”.
On the same count and under the same terms, the same measure for B43: “binds”; for B44: “binds”.
Turning to B45, the binding result is “binds”.
B46: the binding result is listed as “binds”.

The target is the same in another test. Description: phage panning by co-sedimentation with ribosome-bound nascent chain, with subtraction on non-translating ribosomes; selection only.
As to B47, the binding result is “binds”.
